Results as given in the MegaScale stability set (Tsuboyama et al. 2023).

B1: EHEE_rd2_0601 (parent)
chain: TYTYKLTDEEASRRAEDEWRNRGYDVRVRNNNGTWEVEVR
B2: 2M8U (parent)
chain: TKAQVIEAFKVFDRDGNGYVTVDYLRKVLNELGDMMPADEIEEMIYEADPQNSGYVQYETFVGMLFL

Variants of: B1
Assay: folding stability dG (cDNA display proteolysis); higher = more stable
Settings: PBS, room temperature

Row | Variant | folding stability dG
1 | Y2R | 1.58 kcal/mol
2 | Y2T | 1.38 kcal/mol
3 | Y2P | 0.083 kcal/mol
4 | Y2A | 0.941 kcal/mol
5 | Y2F | 1.76 kcal/mol
6 | Y2E | 0.682 kcal/mol
7 | Y2I | 1.69 kcal/mol
8 | Y2M | 1.46 kcal/mol
9 | Y2K | 1.33 kcal/mol
10 | Y2S | 0.609 kcal/mol
11 | Y2V | 1.63 kcal/mol
12 | Y2L | 1.41 kcal/mol
13 | Y2D | 0.375 kcal/mol
14 | Y2Q | 1.04 kcal/mol
15 | Y2N | 0.674 kcal/mol
16 | Y2G | 0.413 kcal/mol
17 | Y2H | 1.37 kcal/mol
18 | Y2W | 2.04 kcal/mol
19 | T7Y | 2.02 kcal/mol
20 | T7L | 1.82 kcal/mol
21 | T7A | 1.94 kcal/mol
22 | T7R | 1.61 kcal/mol
23 | T7N | 1.62 kcal/mol
24 | T7C | 2 kcal/mol
25 | T7W | 1.64 kcal/mol

Row | Variant | folding stability dG
26 | T7M | 1.78 kcal/mol
27 | T7Q | 1.86 kcal/mol
28 | T7D | 1.81 kcal/mol
29 | T7V | 1.63 kcal/mol
30 | T7S | 1.63 kcal/mol
31 | T7P | 2.05 kcal/mol
32 | T7E | 1.85 kcal/mol
33 | T7I | 1.62 kcal/mol
34 | T7H | 1.69 kcal/mol
35 | T7G | 1.69 kcal/mol
36 | T7F | 1.91 kcal/mol
37 | T7K | 1.79 kcal/mol
38 | D8A | 0.271 kcal/mol
39 | D8C | 1.07 kcal/mol
40 | D8Y | 0.298 kcal/mol
41 | D8I | 0.306 kcal/mol
42 | D8K | -0.424 kcal/mol
43 | D8L | 0.261 kcal/mol
44 | D8W | 0.339 kcal/mol
45 | D8E | 0.662 kcal/mol
46 | D8Q | 0.142 kcal/mol
47 | D8R | -0.434 kcal/mol
48 | D8V | -0.022 kcal/mol
49 | D8M | 0.146 kcal/mol
50 | D8S | 1.9 kcal/mol

Row | Variant | folding stability dG
51 | D8T | 1.74 kcal/mol
52 | D8H | 0.365 kcal/mol
53 | D8F | 0.427 kcal/mol
54 | D8N | 1.47 kcal/mol
55 | D8G | 0.808 kcal/mol
56 | K5F | 2.34 kcal/mol
57 | K5W | 1.83 kcal/mol
58 | K5E | 1.31 kcal/mol
59 | K5D | 0.851 kcal/mol
60 | K5T | 1.95 kcal/mol
61 | K5G | 0.688 kcal/mol
62 | K5N | 1.38 kcal/mol
63 | K5M | 1.72 kcal/mol
64 | K5V | 1.97 kcal/mol
65 | K5L | 1.84 kcal/mol
66 | K5H | 1.74 kcal/mol
67 | K5Q | 1.71 kcal/mol
68 | K5Y | 2.64 kcal/mol
69 | K5I | 2.2 kcal/mol
70 | K5A | 1.38 kcal/mol
71 | K5R | 1.56 kcal/mol
72 | K5P | 0.658 kcal/mol
73 | K5S | 1.58 kcal/mol
74 | T3W | 1.24 kcal/mol
75 | T3E | 0.117 kcal/mol

Row | Variant | folding stability dG
76 | T3L | 1.46 kcal/mol
77 | T3R | 1.12 kcal/mol
78 | T3F | 1.37 kcal/mol
79 | T3I | 1.92 kcal/mol
80 | T3Q | 0.604 kcal/mol
81 | T3N | 0.532 kcal/mol
82 | T3S | 0.898 kcal/mol
83 | T3Y | 1.36 kcal/mol
84 | T3V | 1.82 kcal/mol
85 | T3A | 0.556 kcal/mol
86 | T3G | 0.036 kcal/mol
87 | T3D | 0.044 kcal/mol
88 | T3K | 1.13 kcal/mol
89 | T3P | -0.035 kcal/mol
90 | T3M | 1.18 kcal/mol
91 | T3H | 0.873 kcal/mol
92 | T3C | 2.36 kcal/mol
93 | Y4E | 0.419 kcal/mol
94 | Y4W | 1.12 kcal/mol
95 | Y4H | 0.191 kcal/mol
96 | Y4M | 1.14 kcal/mol
97 | Y4V | 0.852 kcal/mol
98 | Y4F | 1.94 kcal/mol
99 | Y4L | 1.36 kcal/mol
100 | Y4T | -0.316 kcal/mol

Row | Variant | folding stability dG
101 | Y4G | -0.985 kcal/mol
102 | Y4A | -0.411 kcal/mol
103 | Y4Q | 0.276 kcal/mol
104 | Y4C | 1.16 kcal/mol
105 | Y4K | -0.308 kcal/mol
106 | Y4I | 1.58 kcal/mol
107 | Y4D | -0.109 kcal/mol
108 | Y4N | -0.767 kcal/mol
109 | Y4S | -0.488 kcal/mol
110 | Y4P | -0.228 kcal/mol
111 | T1W | 2.65 kcal/mol
112 | T1Q | 1.03 kcal/mol
113 | T1R | 1.35 kcal/mol
114 | T1Y | 1.81 kcal/mol
115 | T1H | 1.44 kcal/mol
116 | T1L | 1.37 kcal/mol
117 | T1M | 1.33 kcal/mol
118 | T1N | 1.19 kcal/mol
119 | T1A | 1.41 kcal/mol
120 | T1F | 1.73 kcal/mol
121 | T1K | 1.28 kcal/mol
122 | T1D | 0.915 kcal/mol
123 | T1S | 1.62 kcal/mol
124 | T1E | 0.815 kcal/mol
125 | T1V | 1.86 kcal/mol

Row | Variant | folding stability dG
126 | T1G | 1.37 kcal/mol
127 | T1I | 1.73 kcal/mol
128 | T1P | 1.15 kcal/mol
129 | E9G | 0.631 kcal/mol
130 | E9A | 1.12 kcal/mol
131 | E9F | 1.29 kcal/mol
132 | E9D | 0.289 kcal/mol
133 | L6T | 1.8 kcal/mol
134 | L6I | 1.15 kcal/mol
135 | L6M | 1.97 kcal/mol
136 | L6G | 0.912 kcal/mol
137 | L6E | 0.639 kcal/mol
138 | L6S | 1.23 kcal/mol
139 | L6Q | 0.88 kcal/mol
140 | L6K | -0.09 kcal/mol
141 | L6N | 0.622 kcal/mol
142 | L6F | 3.77 kcal/mol
143 | L6D | 0.391 kcal/mol
144 | L6R | -0.655 kcal/mol
145 | L6W | 1.14 kcal/mol
146 | L6P | -0.21 kcal/mol
147 | L6A | 1.4 kcal/mol
148 | L6H | 1.48 kcal/mol
149 | L6V | 2.08 kcal/mol
150 | L6Y | 3.41 kcal/mol

Variants of: B2
Assay: as above
Settings: PBS, room temperature

Row | Variant | folding stability dG
151 | Y19Q | 2.91 kcal/mol
152 | V22R | 3.59 kcal/mol
153 | A3Y | 2.81 kcal/mol
154 | I41Y | 3.35 kcal/mol
155 | L65M | 3.67 kcal/mol
156 | N30K | 3.59 kcal/mol
157 | F12R | 2.48 kcal/mol
158 | E7W | 2.42 kcal/mol
159 | L32G | 2.16 kcal/mol
160 | L29M | 3.58 kcal/mol
161 | F9N | 2.22 kcal/mol
162 | V20R | 2.18 kcal/mol
163 | R26T | 2.57 kcal/mol
164 | G18M | 2.62 kcal/mol
165 | A38K | 3.69 kcal/mol
166 | T21K | 3.47 kcal/mol
167 | T21S | 3.64 kcal/mol
